This is an account of results in US20120276102A1 (Pfizer, published 2012).

The target in test [1] is murine IL-21R expressed on cells (murine, UniProt Q9JHX3 20-529). As to the kind of experiment: cell-based or functional assay.
Test [2] concerns the target human IL-21R expressed on cells (human, UniProt Q9HBE5 20-538). As to the kind of experiment: cell-based or functional assay.
Test [3] has as its target T1, murine IL-21R extracellular domain His-Flag fusion protein (murine, UniProt Q9JHX3 20-237).
T1 construct: Biotinylated in the ELISAs; also called mIL-21R-H/F; murine IL-21R-H/F
As to the kind of experiment: competition ELISA; competitor plate-bound 18A5 IgG. On the procedure:
Blocked plates were washed 3× with PBS, and 50 μl/well of scFv/IL-21R mixtures were transferred to the appropriate plates and incubated for 1 hr at RT. Plates were washed 5× with PBS prior to the addition of a 1:6000 dilution of horseradish peroxidase-conjugated streptavidin (Southern Biotech, Birmingham, Ala.) secondary antibody to detect bound biotinylated mIL-21R-H/F. Plates were then incubated for 1 hr at RT and washed 7× with PBS. Signal was developed using 3,3′,5,5′-tetramethylbenzidine (TMB), the reaction stopped with H₂SO₄, and the absorbance read at 450 nm on an ENVISION™ plate reader (Perkin Elmer).
In general terms: In an ELISA, binding on a coated surface is turned into a signal by an enzyme label.

human IL-21R expressed on cells, sequence (Q9HBE5 20-538 limits assumed): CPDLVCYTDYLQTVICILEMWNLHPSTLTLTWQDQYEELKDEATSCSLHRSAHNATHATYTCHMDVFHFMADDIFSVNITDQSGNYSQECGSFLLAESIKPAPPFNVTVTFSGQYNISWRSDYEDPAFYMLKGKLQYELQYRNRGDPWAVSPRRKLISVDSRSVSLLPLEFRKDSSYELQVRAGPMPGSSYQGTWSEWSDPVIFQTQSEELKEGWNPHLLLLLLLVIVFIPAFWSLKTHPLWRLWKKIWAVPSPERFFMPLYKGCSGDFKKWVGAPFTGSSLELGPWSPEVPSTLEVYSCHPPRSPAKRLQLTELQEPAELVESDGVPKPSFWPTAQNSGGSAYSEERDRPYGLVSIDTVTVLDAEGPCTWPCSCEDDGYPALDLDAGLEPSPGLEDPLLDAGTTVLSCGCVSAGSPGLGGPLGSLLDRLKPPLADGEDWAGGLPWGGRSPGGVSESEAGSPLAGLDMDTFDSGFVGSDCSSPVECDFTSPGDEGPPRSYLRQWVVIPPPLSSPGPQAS

B1: scFv L12 (scFv)
scFv: QVQLQESGPGLVKTSETLSLTCAVSGYSISSGYYWGWIRQPPGKGLEWIGSISHTGNTYYNPPLKSRVTISVDTSKNQFSLKLSSVTAADTAVYYCARGGGISRPEYWGKGTLVTVSSGGGGSGGGGSGGGGSALSSELTQDPPVSVALGQTVTLTCQGDSLRTYYASWYQQKSGQAPILLLYGKHKRPSGIPDRFSGSTSGDTASLTITGAQAEDEADYYCVARGTRGNPHVLFGGGTQLTVL
Consider B1, for which the “IC50, Murine IL-21R-BaF3 Neutralization Assay” value in test [1] was found to be 87.8 nM. Also, in test [2], the “IC50, Human IL-21R-BaF3 Neutralization Assay” value was 2.6 nM and the “IC50, Human IL-21R-TF1 Neutralization Assay” value was 54.9 nM. Also, the IC50 in test [3] turned out to be 8 nM.

B2: scFv L13 (scFv)
scFv: QVQLQESGPGLVKTSETLSLTCAVSGYSISSGYYWGWIRQPPGKGLEWIGSISHTGNTYYNPPLKSRVTISVDTSKNQFSLKLSSVTAADTAVYYCARGGGISRPEYWGKGTLVTVSSGGGGSGGGGSGGGGSALSSELTQDPPVSVALGQTVTLTCQGDSLRTYYASWYQQKSGQAPILLLYGKHKRPSGIPDRFSGSTSGDTASLTITGAQAEDEADYYCVTRNRYGNPHVLFGGGTQLTVL
Take B2: the “IC50, Murine IL-21R-BaF3 Neutralization Assay” value in test [1] is 1.25 nM. Also, in test [2], the “IC50, Human IL-21R-BaF3 Neutralization Assay” value was found to be 11 nM and the “IC50, Human IL-21R-TF1 Neutralization Assay” value was determined as 257 nM. This molecule had a half-maximal inhibitory concentration (IC50) in test [3] of 7 nM.

B3: scFv L18 (scFv)
scFv: QVQLQESGPGLVKTSETLSLTCAVSGYSISSGYYWGWIRQPPGKGLEWIGSISHTGNTYYNPPLKSRVTISVDTSKNQFSLKLSSVTAADTAVYYCARGGGISRPEYWGKGTLVTVSSGGGGSGGGGSGGGGSALSSELTQDPPVSVALGQTVTLTCQGDSLRTYYASWYQQKSGQAPILLLYGKHKRPSGIPDRFSGSTSGDTASLTITGAQAEDEADYYCVTRSVKGNPHVLFGGGTQLTVL
As to B3, the “IC50, Murine IL-21R-BaF3 Neutralization Assay” value in test [1] turned out to be 8.34 nM. In addition, in test [2], the “IC50, Human IL-21R-BaF3 Neutralization Assay” value amounted to 3.7 nM and the “IC50, Human IL-21R-TF1 Neutralization Assay” value is 54.4 nM. The molecule also returned a 50% inhibitory concentration (IC50) in test [3] of 8 nM.

B4: scFv L24 (scFv)
scFv: QVQLQESGPGLVKTSETLSLTCAVSGYSISSGYYWGWIRQPPGKGLEWIGSISHTGNTYYNPPLKSRVTISVDTSKNQFSLKLSSVTAADTAVYYCARGGGISRPEYWGKGTLVTVSSGGGGSGGGGSGGGGSALSSELTQDPPVSVALGQTVTLTCQGDSLRTYYASWYQQKSGQAPILLLYGKHKRPSGIPDRFSGSTSGDTASLTITGAQAEDEADYYCIARSNKGNPHVLFGGGTQLTVL
For the molecule B4, the “IC50, Murine IL-21R-BaF3 Neutralization Assay” value in test [1] is 3.73 nM. In test [2], the “IC50, Human IL-21R-BaF3 Neutralization Assay” value turned out to be 2.4 nM and the “IC50, Human IL-21R-TF1 Neutralization Assay” value was 18.7 nM. In addition, the IC50 in test [3] turned out to be 6 nM.

B5: scFv L16 (scFv)
scFv: QVQLQESGPGLVKTSETLSLTCAVSGYSISSGYYWGWIRQPPGKGLEWIGSISHTGNTYYNPPLKSRVTISVDTSKNQFSLKLSSVTAADTAVYYCARGGGISRPEYWGKGTLVTVSSGGGGSGGGGSGGGGSALSSELTQDPPVSVALGQTVTLTCQGDSLRTYYASWYQQKSGQAPILLLYGKHKRPSGIPDRFSGSTSGDTASLTITGAQAEDEADYYCVTRSAKGNPHVLFGGGTQLTVL
With B5, the “IC50, Murine IL-21R-BaF3 Neutralization Assay” value in test [1] was found to be 4.71 nM. Further, in test [2], the “IC50, Human IL-21R-BaF3 Neutralization Assay” value came to 3.7 nM and the “IC50, Human IL-21R-TF1 Neutralization Assay” value turned out to be 67.4 nM. Besides, the half-maximal inhibitory concentration (IC50) in test [3] turned out to be 6 nM.

B6: scFv L15 (scFv)
scFv: QVQLQESGPGLVKTSETLSLTCAVSGYSISSGYYWGWIRQPPGKGLEWIGSISHTGNTYYNPPLKSRVTISVDTSKNQFSLKLSSVTAADTAVYYCARGGGISRPEYWGKGTLVTVSSGGGGSGGGGSGGGGSALSSELTQDPPVSVALGQTVTLTCQGDSLRTYYASWYQQKSGQAPILLLYGKHKRPSGIPDRFSGSTSGDTASLTITGAQAEDEADYYCSTRAIHGNPHVLFGGGTQLTVL
As for B6, in test [1], the “IC50, Murine IL-21R-BaF3 Neutralization Assay” value stood at 53.5 nM. In addition, in test [2], the “IC50, Human IL-21R-BaF3 Neutralization Assay” value was found to be 3.3 nM and the “IC50, Human IL-21R-TF1 Neutralization Assay” value was 30.3 nM. For the same molecule, in test [3], the half-inhibitory concentration (IC50) is 14 nM.

B7: scFv L20 (scFv)
scFv: QVQLQESGPGLVKTSETLSLTCAVSGYSISSGYYWGWIRQPPGKGLEWIGSISHTGNTYYNPPLKSRVTISVDTSKNQFSLKLSSVTAADTAVYYCARGGGISRPEYWGKGTLVTVSSGGGGSGGGGSGGGGSALSSELTQDPPVSVALGQTVTLTCQGDSLRTYYASWYQQKSGQAPILLLYGKHKRPSGIPDRFSGSTSGDTASLTITGAQAEDEADYYCVSRSAKGNPHVLFGGGTQLTVL
Consider B7, for which the “IC50, Murine IL-21R-BaF3 Neutralization Assay” value in test [1] was determined as 15.4 nM. In test [2], the “IC50, Human IL-21R-BaF3 Neutralization Assay” value is 3.1 nM and the “IC50, Human IL-21R-TF1 Neutralization Assay” value is 57.5 nM. Also, the IC50 in test [3] was found to be 5 nM.

B8: scFv L14 (scFv)
scFv: QVQLQESGPGLVKTSETLSLTCAVSGYSISSGYYWGWIRQPPGKGLEWIGSISHTGNTYYNPPLKSRVTISVDTSKNQFSLKLSSVTAADTAVYYCARGGGISRPEYWGKGTLVTVSSGGGGSGGGGSGGGGSALSSELTQDPPVSVALGQTVTLTCQGDSLRTYYASWYQQKSGQAPILLLYGKHKRPSGIPDRFSGSTSGDTASLTITGAQAEDEADYYCMARSRKGNPHVLFGGGTQLTVL
For the molecule B8, the “IC50, Murine IL-21R-BaF3 Neutralization Assay” value in test [1] amounted to 6.49 nM. Besides, in test [2], the “IC50, Human IL-21R-BaF3 Neutralization Assay” value worked out at 3.2 nM and the “IC50, Human IL-21R-TF1 Neutralization Assay” value was found to be 33.5 nM. The molecule also showed an IC50 in test [3] of 6 nM.

B9: scFv L17 (scFv)
scFv: QVQLQESGPGLVKTSETLSLTCAVSGYSISSGYYWGWIRQPPGKGLEWIGSISHTGNTYYNPPLKSRVTISVDTSKNQFSLKLSSVTAADTAVYYCARGGGISRPEYWGKGTLVTVSSGGGGSGGGGSGGGGSALSSELTQDPPVSVALGQTVTLTCQGDSLRTYYASWYQQKSGQAPILLLYGKHKRPSGIPDRFSGSTSGDTASLTITGAQAEDEADYYCSTRSRKGNPHVLFGGGTQLTVL
With B9, in test [1], the “IC50, Murine IL-21R-BaF3 Neutralization Assay” value was determined as 2.66 nM. In addition, in test [2], the “IC50, Human IL-21R-BaF3 Neutralization Assay” value worked out at 1.6 nM and the “IC50, Human IL-21R-TF1 Neutralization Assay” value amounted to 60.3 nM. The molecule also displayed an IC50 in test [3] of 12 nM.

B10: scFv L19 (scFv)
scFv: QVQLQESGPGLVKTSETLSLTCAVSGYSISSGYYWGWIRQPPGKGLEWIGSISHTGNTYYNPPLKSRVTISVDTSKNQFSLKLSSVTAADTAVYYCARGGGISRPEYWGKGTLVTVSSGGGGSGGGGSGGGGSALSSELTQDPPVSVALGQTVTLTCQGDSLRTYYASWYQQKSGQAPILLLYGKHKRPSGIPDRFSGSTSGDTASLTITGAQAEDEADYYCVARAVRGNPHVLFGGGTQLTVL
For B10, in test [1], the “IC50, Murine IL-21R-BaF3 Neutralization Assay” value is 13.6 nM. Also, in test [2], the “IC50, Human IL-21R-BaF3 Neutralization Assay” value amounted to 4.5 nM and the “IC50, Human IL-21R-TF1 Neutralization Assay” value turned out to be 35.3 nM. This molecule also yielded an IC50 in test [3] of 15 nM.

B11: scFv L21 (scFv)
scFv: QVQLQESGPGLVKTSETLSLTCAVSGYSISSGYYWGWIRQPPGKGLEWIGSISHTGNTYYNPPLKSRVTISVDTSKNQFSLKLSSVTAADTAVYYCARGGGISRPEYWGKGTLVTVSSGGGGSGGGGSGGGGSALSSELTQDPPVSVALGQTVTLTCQGDSLRTYYASWYQQKSGQAPILLLYGKHKRPSGIPDRFSGSTSGDTASLTITGAQAEDEADYYCATRAVRGNPHVLFGGGTQLTVL
Turning to B11, in test [1], the “IC50, Murine IL-21R-BaF3 Neutralization Assay” value came to 162 nM. For the same molecule, in test [2], the “IC50, Human IL-21R-BaF3 Neutralization Assay” value was determined as 9.4 nM and the “IC50, Human IL-21R-TF1 Neutralization Assay” value was about 100 nM. Moreover, the half-inhibitory concentration (IC50) in test [3] came out at 28 nM.

For orientation: IC50 means the concentration that inhibits the measured activity by half.
